Among the data in PMC7690626 (2020) are Kd values, retold here.

Assay in all cases: FACS; CXCR4+ Toledo cells
(Flow cytometry measures light scatter and fluorescence of single cells or particles in a stream.)

Assay [1] concerns the target T22-GFP-H6-S-Cy5 nanoconjugate (T22-GFP-H6 labeled with Sulfo-Cyanine5) (horseshoe crab | , UniProt P14216, Sulfo-Cyanine 5 covalently bound through exposed external lysines (NHS-ester to amine); Poisson dye load distribution, positions not given).
The target of assay [2] is T22-GFP-H6 protein nanoparticle (unlabeled) (horseshoe crab | , UniProt P14216).
Assay [3] deals with T22-GFP-H6-ATTO nanoconjugate (T22-GFP-H6 labeled with ATTO488) (horseshoe crab | , UniProt P14216, ATTO488 covalently bound through exposed external lysines (NHS-ester to amine); Poisson dye load distribution, positions not given).

B1: CXCR4 receptor on human Toledo diffuse large B-cell lymphoma cells (receptor)
chain: MEGISIYTSDNYTEEMGSGDYDSMKEPCFREENANFNKIFLPTIYSIIFLTGIVGNGLVILVMGYQKKLRSMTDKYRLHLSVADLLFVITLPFWAVDAVANWYFGNFLCKAVHVIYTVNLYSSVLILAFISLDRYLAIVHATNSQRPRKLLAEKVVYVGVWIPALLLTIPDFIFANVSEADDRYICDRFYPNDLWVVVFQFQHIMVGLILPGIVILSCYCIIISKLSHSKGHQKRKALKTTVILILAFFACWLPYYIGISIDSFILLEIIKQGCEFENTVHKWISITEALAFFHCCLNPILYAFLGAKFKTSAQHALTSVSRGSSLKILSKGKRGGHSSVSTESESSSFHSS
Take B1: the Kd (usually a measure of binding affinity in units of concentration) in assay [1] was determined as 540 nM; in assay [2] it was 140 nM; in assay [3], 250 nM.
